Assay: soluble fraction after stress (log2 fold change); higher = more stays soluble; pooled small domains, quantitative proteomics
Conditions: stress: 50 degC
Outline: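 Pooled custom libraries of small protein domains were measured in a high-throughput format, with quantitative proteomics as the read-out. Each library was stressed at 50°C. Aggregation propensity is given as the base-two logarithm of the fold change in how much of each protein stays soluble after the stress. Higher values mean a larger share of the protein remains in solution.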

Sequence | soluble fraction (log2)
HMANEGWDIYKLDIRNHKQPNGEYYSEKEIQSTINNTFGKGSFNVDWKKYEKDKEYREKTNYYYFQAKYFV | -0.19
HMKILNYQSLVGKKGITKSMLRPAGIVEIEGRRYDVVTRGEFIEPGKMITVDEVQGNRIIVQIERE | -0.165
HMKETERKILQAVLGLPLKYRDVIHLFYYEEMSVKEIAEVLHRQESTVTSQLTRARGILKKNL | 0.09
HMGEQVFSRKDLAINGNDLKAVFGWPPGPKYREALDQLFHWVLEDPARNRRETLLAYLHSLYD | -0.0199
HMSEHLTLVVSDEDAGHRVDQFLVSRLAHMTRSQIQKLIKDGQVTIDTKLVRASTTVHTDNIVTIEFPPAV | -0.505
HMSSNLTVFTRNNAIIVNSDVVRKLNVFAVDGRLVRSVDLSVGENVINNISRGMYLIDKQKVVV | -0.353
HMKKISAKQQQILDYISSYSLEHGYPPSVREIGAEMGLRSPSTVHAHLKKLQEAGYLEPNEHKSRALTP | 0.128
HMKIEETLGKTAQVYIPIPQYLSGIGKVTLSVRGSLRELDAMTEEEKIPSNTIVRIVKVQDQVLFVKRA | -0.74
HMDAPRFAAGDAVRVAGLVSKPQHNGRAGSVLSYDPVSLRYIVKVDGEDEPLKLKPENVLMPA | 0.136
HMSLETRRYQLPRTDAQTASGLLRSLSGLPGVREVNLSGEGVAYLKVDSKGFDEQNVIKLLAGE | 0.307
HMDDFITLVIHTPAHAQNLRNILESHGMEVRLEDFVSFKSPVAVAQRVKIRPKDLPLALKIIESGE | 0.227
HMENLSFNINSEEEGQRIDKYLSVMIEGKSRSFVQGLIEEKKVKANSKVIKSNYKLKKGDFIEVEVPEPV | 0.27
HMTVNLPPKQKAAILLMSLPPEVSAQLFKELGPDEVHAITLEISKLPPISPDVRAQVIDEFLHSS | -0.152
HMSLDAAAVASKLIKRLSKSPGRRFALDDLAVDVGLPHEQGRPLVRSALELLVRTQQAVEGPPNVFRLFF | -1.57
HMAKIDSRKALIDQLTTTFTRAQLEELITKNELSTDARFFLSQWNAKGWIRKTAKNVYEKLR | -0.134
HMHMSKKLADSISALRKKNGLSQEQLAEKIGISRQTVSNWERGIATPDVETLNLISKLFDEDLSVMING | 0.199
HMLVPWKSANLFKLVEPNFRLAERKIPMLPSADREKLQEIMSDMKDAIVDNDKMALMKLDEELTDFLFDFV | -1.22
HMQTFNADDIEPIIKEILQENPKAISDFLTGNENVVKFLLGQVMKNTKGKANPKVIEELLINQLRELNN | 0.00183
HMEDVLVTQIIQLKHVDANDMKTLFTPLLSRGSSQLLAYPQSNVLIITDTRSNIKKITEILDIIDKS | -0.629
HMSEFLTIVRAVYSGLSRRKVAAMHKVSRNTVSLYLRQARDQGWLTLEDLEKLDDLTVSQGVS | -2
HMNQASLTYSEFIANVESKAITRVTISGDTISGILADGKPFQTIYPMADLELLPILRRSGVDINVKEVQ | -0.117
HMSPAPVSVDHLAFPTRDLEATDHFYSKVVGATLVHAESGYSPSWKSDYLLITYALPDGTRLSFFDWP | 0.0261
HMIIVMSANANAREISEVIARIRAMGYDVHLSHGKERTIIGVIGRGTPIDREQLSLMSGVQQVMPV | -1.03
HMSVLDEVRKLSFHQRNAVFLFYFEGYSMKEIAQIFHVKEGTVSSWLTRARKQLRKQMEEEVLYDESLP | -0.526
HMKFGEQIKERRQELDLTQAEVAEKLFVTRQAVSNWEHNKTYPDLNMLVKISNVYQISLDSLLR | -1.23
HMPELSNNLDRDKVALKNFNESLKDGLTPAEAYANHLTNVSKAAQEAARQSNGLPVDIDKYHNSQLAASMA | 0.273
HMERFRQVNAGMTRDDIYQLLGKPTEKTPFPLKNEEVWSWRHQADGQTVALFNIHLDPDGRVTTTSQSMDL | 0.021
HMGKHYLLKDDNGTITIYKILEDGTQEVYEKTEISTTYLPQTDNIGIKQGIRVNGDEALNELIENF | -0.0212
HMDGYTVYTNWGSDTNVARSDQQIQSQIPQLSGATIVGVWTKPIATGGTSYKIRYRTNSGAFTEIDVDQ | -0.105
HMFDITKEVLKQSGLYNLYKNDESLEGINRIQNIEELLNGIKDFVENNEKSQASVSSFLQDVALATDQ | 0.126
